Data published in US10793871B2, “Nucleic acid molecule encoding glei protein variant with increased phytic acid sensitivity and use thereof” (University-Industry Foundation, Yonsei University, priority 2015, dated 2020).

T1: Dbp5 ATPase (Saccharomyces cerevisiae, UniProt P20449+Q12315)
T1 sequence (P20449 1-482): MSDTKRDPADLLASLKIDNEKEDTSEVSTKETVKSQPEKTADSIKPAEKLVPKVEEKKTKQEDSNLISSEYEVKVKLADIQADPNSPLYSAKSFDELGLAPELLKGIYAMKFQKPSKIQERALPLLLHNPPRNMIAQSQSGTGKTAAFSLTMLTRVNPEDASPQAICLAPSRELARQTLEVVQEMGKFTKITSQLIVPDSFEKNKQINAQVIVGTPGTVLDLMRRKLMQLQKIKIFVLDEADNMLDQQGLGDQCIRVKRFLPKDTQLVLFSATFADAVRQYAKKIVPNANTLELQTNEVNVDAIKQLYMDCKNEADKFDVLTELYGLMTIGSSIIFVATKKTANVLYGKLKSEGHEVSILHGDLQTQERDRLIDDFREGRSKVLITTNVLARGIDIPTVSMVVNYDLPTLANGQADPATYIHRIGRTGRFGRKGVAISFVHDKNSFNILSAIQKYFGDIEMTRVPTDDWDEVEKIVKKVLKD
T1 sequence (Q12315 1-538): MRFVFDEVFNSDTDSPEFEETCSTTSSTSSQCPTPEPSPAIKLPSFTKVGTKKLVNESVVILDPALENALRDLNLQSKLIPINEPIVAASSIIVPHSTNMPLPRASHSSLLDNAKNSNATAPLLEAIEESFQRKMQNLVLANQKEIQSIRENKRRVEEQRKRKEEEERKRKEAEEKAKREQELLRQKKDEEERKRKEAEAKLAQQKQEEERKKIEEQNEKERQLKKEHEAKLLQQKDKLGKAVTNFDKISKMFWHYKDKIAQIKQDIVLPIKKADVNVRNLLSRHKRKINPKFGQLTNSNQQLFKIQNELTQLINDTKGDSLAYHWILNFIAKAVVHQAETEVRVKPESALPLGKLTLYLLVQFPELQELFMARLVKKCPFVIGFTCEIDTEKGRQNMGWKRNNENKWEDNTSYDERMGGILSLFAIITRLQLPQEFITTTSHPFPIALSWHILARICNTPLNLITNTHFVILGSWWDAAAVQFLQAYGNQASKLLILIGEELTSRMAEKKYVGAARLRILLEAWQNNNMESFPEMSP

T2: LOS4 ATPase (Arabidopsis thaliana, UniProt Q0WPZ7)
T2 construct: LOS4 was cloned into a pET-29a vector for His fusion; made in house; host or cells: Escherichia coli Rosetta (DE3) for LOS4-His; BL21 (DE3) for MBP-Gle1C
T2 sequence (Q0WPZ7 244-611): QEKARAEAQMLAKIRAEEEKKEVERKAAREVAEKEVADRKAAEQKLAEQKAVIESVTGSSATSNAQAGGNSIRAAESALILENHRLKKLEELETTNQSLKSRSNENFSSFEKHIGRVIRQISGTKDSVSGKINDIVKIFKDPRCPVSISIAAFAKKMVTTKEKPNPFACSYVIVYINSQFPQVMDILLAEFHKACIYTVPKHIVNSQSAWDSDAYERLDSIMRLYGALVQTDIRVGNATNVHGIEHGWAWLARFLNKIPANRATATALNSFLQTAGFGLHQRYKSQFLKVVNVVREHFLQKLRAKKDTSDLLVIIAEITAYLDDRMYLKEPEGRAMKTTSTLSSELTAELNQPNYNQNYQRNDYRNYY


Key:
LOS4 ATPase [1] = assay: Steady-state ATPase assay of LOS4-His; type: biochemical, Arabidopsis thaliana
Procedure: (§1) A steady-state ATPase assay was performed as described by Alcázar-Román et al. (Inositol hexakisphosphate and Gle1 activate the DEAD-box protein Dbp5 for nuclear mRNA export. Nat. Cell Biol. 8: 711-716, 2006) with slight modifications. The ATPase assay was performed with a LOS4-His protein in a 96-well plate using a buffer containing 20 mM HEPES (pH 7.5), 150 mM NaCl, 3 mM MgCl2, 1 mM DTT, 2 mM ATP, 6 mM phosphoenolpyruvate, 1.2 mM NADH, 1 mg/ml BSA and 2% (v/v) pyruvate kinase/lactate dihydrogenase (Sigma-Aldrich) in a total volume of 100 μl. Polyadenylic acid was added at 50 μg/ml or different concentrations as described above. Absorbance at 340 nm was measured using a VersaMax absorbance microplate reader (Molecular Devices), and the data were analyzed using SoftMax Pro software (Molecular Devices).
(§2) Gle1 and Gle1C (aa residues 244-611) were cloned into a pMAL C2X vector (New England Biolabs) for MBP fusion, LOS4 was cloned into a pET-29a vector for His fusion. MBP-Gle1 and MBP-Gle1C proteins were expressed in a BL21 (DE3) strain, and LOS4-His proteins were expressed in a Rosseta (DE3) strain of Escherichia coli. Cells were grown at 37° C. to an A600 of 0.4, shifted to 16° C., and induced by 0.25 mM IPTG for 16 hours. The MBP- and His-fusion proteins were purified following the manufacturer's introductions using MBP Excellose (Bioprogen) and His60 Ni Superflow™ resin (Clontech), respectively.

Dbp5 ATPase = target: T1, Dbp5 ATPase; settings: yeast; InsP6 100 nM added to Gle1 and RNA; cited from earlier work
LOS4 ATPase [2] = target: T2, LOS4 ATPase; assay: Steady-state ATPase assay of LOS4-His; type: biochemical; settings: MBP-Gle1C alone (2 μM), without LOS4
Procedure: as §1, §2

Row | additional increase in LOS4 activity by InsP6 (LOS4 ATPase [1]; InsP6 10 μM added to Gle1 and RNA (FIG. 5B)) | increase of LOS4 ATPase activity (LOS4 ATPase [1]; LOS4-His 1 μM, ATP 2 mM, RNA 50 μg/ml, MBP-Gle1 2 μM plus 10 μM InsP6) | increase in the overall catalytic rate of LOS4 (LOS4 ATPase [1]; LOS4-His 1 μM with MBP-Gle1C 2 μM vs LOS4-His alone) | InsP6 concentration at which LOS4-stimulating activity increases above basal (LOS4 ATPase [1]; with RNA, InsP6 0-100 μM) | InsP6 concentration giving maximum LOS4-stimulating activity (LOS4 ATPase [1]; with RNA, InsP6 0-100 μM) | InsP6 concentrations at which only basal LOS4-stimulating activity is maintained (LOS4 ATPase [1]; with RNA, InsP6 0-100 μM) | Molecule | additional increase in Dbp5 ATPase activity (Dbp5 ATPase) | intrinsic ATPase activity (LOS4 ATPase [2]) | LOS4-His ATPase activity on addition of increasing amounts of protein (LOS4 ATPase [1]; 0-4 μM MBP-Gle1C, 1 μM LOS4-His, 2 mM ATP, RNA (FIG. 4C)) | stimulation of LOS4 ATPase activity in the absence of InsP6 (LOS4 ATPase [1]; 1 μM LOS4-His, 2 mM ATP, RNA, 2 μM MBP-Gle1C or variant, no InsP6) | apparent kcat of LOS4-His (LOS4 ATPase [1]; LOS4-His (1 μM) with MBP-Gle1C (2 μM), 0-2 mM ATP) | maximal increase in LOS4 ATPase activity with RNA (LOS4 ATPase [1]; LOS4-His:MBP-Gle1C 1:2, addition of RNA (polyadenylic acid) at different concentrations)
1 | 30% | > 4 fold | – | – | – | – | O=P(O)(O)O[C@H]1[C@H](OP(=O)(O)O)[C@@H](OP(=O)(O)O)[C@H](OP(=O)(O)O)[C@@H](OP(=O)(O)O)[C@H]1OP(=O)(O)O [InsP6, Myo-inositol-1,2,3,4,5,6-hexakisphosphate, reference compound] | 3- to 4 fold | – | – | – | – | –
2 | – | – | approximately two-fold | 1 µM | 10 µM | 1 to 100 nM | MBP-Gle1C: MBP fusion protein of the carboxyl-terminal domain of Gle1 (amino acid residues 244-611), wild type (protein) QEKARAEAQMLAKIRAEEEKKEVERKAAREVAEKEVADRKAAEQKLAEQKAVIESVTGSSATSNAQAGGNSIRAAESALILENHRLKKLEELETTNQSLKSRSNENFSSFEKHIGRVIRQISGTKDSVSGKINDIVKIFKDPRCPVSISIAAFAKKMVTTKEKPNPFACSYVIVYINSQFPQVMDILLAEFHKACIYTVPKHIVNSQSAWDSDAYERLDSIMRLYGALVQTDIRVGNATNVHGIEHGWAWLARFLNKIPANRATATALNSFLQTAGFGLHQRYKSQFLKVVNVVREHFLQKLRAKKDTSDLLVIIAEITAYLDDRMYLKEPEGRAMKTTSTLSSELTAELNQPNYNQNYQRNDYRNYY | – | did not show intrinsic ATPase activity | activated LOS4-His ATPase activity in a concentration-dependent manner | activated LOS4 ATPase activity to similar degrees | 0.565 s⁻¹ | ~3 fold
